Experimental data published in patent US20180362643A1 (Amgen, published 2018).
Ends that are not written are not given here.

T1: full-length human PACAP38 (human, not fully specified)
T1 peptide: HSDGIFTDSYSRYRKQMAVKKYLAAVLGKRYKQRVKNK

T2: human PACAP27 (human, not fully specified)
T2 peptide: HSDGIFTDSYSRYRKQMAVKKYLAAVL

T3: vasoactive intestinal peptide (VIP) (human)
T3 construct: also called human VIP
T3 peptide: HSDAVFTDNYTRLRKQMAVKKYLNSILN

T4: carboxy terminal PACAP38 peptide (amino acids 28-38) (human, ends and bridges not checked)
T4 construct: also called C-terminal Peptide; C-terminal PACAP peptide
T4 peptide: GKRYKQRVKNK

T5: PACAP38 peptide fragment 6-20 (human)
T5 construct: also called peptide No. 13
T5 peptide: FTDSYSRYRKQMAVK

T6: PACAP38 peptide fragment 6-37 (human)
T6 construct: also called peptide No. 3
T6 peptide: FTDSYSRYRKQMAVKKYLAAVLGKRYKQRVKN

T7: PACAP38 peptide fragment 14-38 (human, not fully specified)
T7 construct: also called peptide No. 7
T7 peptide: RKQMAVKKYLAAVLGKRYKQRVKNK

T8: PACAP38 peptide fragment 6-38 (human, not fully specified)
T8 construct: also called peptide No. 11
T8 peptide: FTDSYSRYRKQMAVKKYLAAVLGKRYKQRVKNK

T9: 31-38 (ends and bridges not checked)
T9 construct: also called PACAP38 peptide fragment 31-38; peptide No. 5
T9 peptide: YKQRVKNK

T10: amino terminal PACAP38 peptide (amino acids 1-13) (human)
T10 construct: also called N-terminal Peptide; N-terminal PACAP peptide
T10 peptide: HSDGIFTDSYSRY

T11: PACAP38 peptide fragment 6-36 (human)
T11 construct: also called peptide No. 12
T11 peptide: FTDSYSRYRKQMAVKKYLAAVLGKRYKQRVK


Tests used:
[1] = target: T1, full-length human PACAP38; assay: cell-based or functional assay
human PACAP27 = target: T2, human PACAP27; assay: cell-based or functional assay
[2] = target: T3, vasoactive intestinal peptide (VIP); assay: ELISA screen of B-cell culture supernatant
[3] = target: T3, vasoactive intestinal peptide (VIP); assay: ELISA screen of B-cell culture supernatant; VIP at 100 ng/mL
[4] = target: T4, carboxy terminal PACAP38 peptide (amino …); assay: ELISA screen of B-cell culture supernatant; C-terminal peptide at 500 ng/mL
Text: (§1) Rabbits were immunized with human PACAP38 peptide ([…]; SEQ ID NO: 1). Monoclonal antibodies were generated from the immunized rabbits using the Selected Lymphocyte Antibody Method (SLAM) as described in Babcook et al., Proc. Natl. Acad. Sci. USA, Vol. 93: 7843-7848, 1996. Briefly, B cells were harvested from spleens from the immunized rabbits and expanded in culture. The supernatant from the expanded B-cell cultures was initially screened for binding to an amino terminal PACAP38 peptide ([…]; SEQ ID NO: 5) and a carboxy terminal PACAP38 peptide ([…]; SEQ ID NO: 4) using an ELISA assay. From the initial screen, 2,935 N-terminal and/or C-terminal binders were identified. The affinity of these antibodies for full-length human PACAP38 (SEQ ID NO: 1) was assessed by ELISA assay.

[5] = target: T1, full-length human PACAP38; assay: ELISA screen of B-cell culture supernatant; full-length PACAP38 at 10 ng/mL
Text: as §1

[6] = target: T5, PACAP38 peptide fragment 6-20; assay: SPR (Biacore 3000), solution competition with the peptide for antibody binding to immobilised full-length PACAP38; % inhibition
Description: (§2) The binding epitopes of anti-PACAP antibodies were evaluated by using the Biacore 3000 biosensor-based instrument (GE Healthcare USA). The Biacore 3000 instrument utilizes surface plasmon resonance (SPR) technology to measure mass increase on the sensor-chip surface. The binding interactions are measured in real-time and recorded as Response Units (RU). Each binding profile (cycle) is stored in a “sensorgram” in real-time. Generally, Biacore technology entails immobilizing a ligand of interest on to a flow-cell of the sensor-chip via a coupling chemistry. The analyte (e.g. putative binding partner to the ligand of interest) is injected across the immobilized ligand allowing it to bind to the ligand-immobilized surface. The magnitude of the response is directly proportional to the mass increase on the immobilized surface due to the binding of the analyte.
(§3) In this experiment, various peptide fragments of PACAP38 were incubated with each of the six antibodies (mAb1, mAb2, mAb3, mAb4, mAb5, and mAb6) described in Example 2 and evaluated for their ability to inhibit binding of the antibodies to full-length PACAP38 immobilized on the sensor-chip. The binding epitopes for each of the antibodies were deduced from the set of peptides that were able to inhibit the binding of each antibody to full-length PACAP38.
(§4) Each of the six anti-PACAP antibodies was incubated at a 1:200 molar ratio (Ab: peptide fragment) with each of the peptide fragments in Table 9 at an ambient temperature for 2 hours prior to analysis. […] A second control containing 6.5 nM antibody was prepared in sample diluent to be used as the untreated control sample for each antibody. Full-length PACAP38, buffer, and each peptide fragment were also tested to evaluate non-specific binding to the immobilized PACAP38 surface.

[7] = target: T6, PACAP38 peptide fragment 6-37; assay: SPR (Biacore 3000), solution competition: antibody pre-incubated 2 h with the peptide at 1:200 molar ratio (Ab:peptide), then injected over immobilised full-length PACAP38; readout % inhibition of antibody binding (filing counts >50 % as reactive)
Description: as §2, §3, §4

[8] = target: T7, PACAP38 peptide fragment 14-38; assay: as above
Description: as §2, §3, §4

[9] = target: T8, PACAP38 peptide fragment 6-38; assay: as above
Description: as §2, §3, §4

[10] = target: T4, carboxy terminal PACAP38 peptide (amino …); assay: ELISA screen of B-cell culture supernatant
31-38 = target: T9, 31-38; assay: SPR (Biacore 3000), solution competition with the peptide for antibody binding to immobilised full-length PACAP38; % inhibition
Description: as §2, §3, §4

[11] = target: T10, amino terminal PACAP38 peptide (amino …); assay: ELISA screen of B-cell culture supernatant; N-terminal peptide at 500 ng/mL; ELISA screen of B-cell culture supernatant (Example 1); N-terminal peptide 500 ng/mL; optical density
Text: as §1

[12] = target: T11, PACAP38 peptide fragment 6-36; assay: SPR (Biacore 3000), solution competition: antibody pre-incubated 2 h with the peptide at 1:200 molar ratio (Ab:peptide), then injected over immobilised full-length PACAP38; readout % inhibition of antibody binding (filing counts >50 % as reactive)
Description: as §2, §3, §4

| Binder | IC50: inhibition of PACAP38 (10 pM)-induced activation of human PAC1 receptor, cAMP assay in SH-SY5Y (CRL-2266) cells, POC versus antibody concentration [1] | IC50: inhibition of PACAP27 (10 pM)-induced activation of human PAC1 receptor, cAMP assay in SH-SY5Y (CRL-2266) cells, POC versus antibody concentration (human PACAP27) | binding result [2] | Optical Density [3] | Optical Density [4] | Optical Density [5] | binding result [6] | binding result [7] | binding result [8] | binding result [9] | binding result [10] | binding result (31-38) | Optical Density [11] | binding result [12] |
| --- | --- | --- | --- | --- | --- | --- | --- | --- | --- | --- | --- | --- | --- | --- |
| mAb2 (antibody, V domains shown, Rabbit monoclonal antibody (SLAM), recombinant; also called monoclonal anti-PACAP antibody 2; 2 (c81)) VH: QSLEESGGGLVQPEGSLTLTCTASGFSFNSSSYMCWVRQAPGKGLEWIGCIFTGSSGNTYYATWAQGRFTISKTSTTVTLEMTSLTAADTATYFCARDRAYFLVGYFYATYYFDLWGPGTLVTVSS VL: DVVMTQTPSPVSAQVGGTVTINCQASESIDSDLSWYQQKPGQPPKLLIYRTFTLESGVPSRFKGSGSGTDYTLTISDLECADAAIYYCQCTDGSSISGSYGWDAFGGGTEVVVKG | 0.4 nM | > 1 uM | no binding (tested: 100 ng/mL) | 0.09 OD | 3.74 OD | 3.39 OD | no binding (tested: 1:200 molar ratio (Ab:peptide)) | binds | binds | binds |  |  |  |  |
| mAb5 (antibody, V domains shown, Rabbit monoclonal antibody (SLAM), recombinant; also called monoclonal anti-PACAP antibody 5; 5 (c71)) VH: QSVEESGGRLVTPGTPLTLTCTVSGFSLSTYNMCWVRQAPGKGLEWVGFINSDDSAYYASWAKGRFTFSKTSTTVDLKIASPTTEDTATYFCARYDWDYYYSRLDLWGPGTLVTVSS VL: DIVLTQTPASVSAAVGGTVSISCQSSESVYNNNYLSWFQQKPGQPPKLLIYGASTLASGVPSRFEGSGSGTQFTLTISDVQCDDAATYYCLGDYIIIENIFGGGTEVVVKG | 1 nM | 26 nM | no binding (tested: 100 ng/mL) | 0.12 OD | 0.05 OD | 3.21 OD | no binding (tested: 1:200 molar ratio (Ab:peptide)) | binds |  | binds | no binding (tested: 500 ng/mL) | no binding (tested: 1:200 molar ratio (Ab:peptide)) | 1.34 OD | binds |
| mAb6 (antibody, V domains shown, Rabbit monoclonal antibody (SLAM), recombinant; also called monoclonal anti-PACAP antibody 6; 6 (c55)) VH: QLEESGGGLVQPGASLTLTCTTSGFSLSDNYLCWVRQAPGRGLEWVACIGIVLRSTGATYYASWAEGRFTISKTSPTTVTLEMTSLTAADTATYFCALDLGYGGPLWGPGTLVTVSS VL: AQVLTQTPASVSAAVGGTVTINCQASQSVYNNKNLAWYQQKPGQPPKLLIYFSSTLASGVPSRFRGSGSGTQFTLTISGVQCGDAATYYCLGEFGSIWAFGGGTEVVVKG | 0.6 nM | 0.5 nM |  | 0.95 OD | 0.05 OD | 3.55 OD | no binding (tested: 1:200 molar ratio (Ab:peptide)) | binds | binds | binds | no binding (tested: 500 ng/mL) | no binding (tested: 1:200 molar ratio (Ab:peptide)) | 4.24 OD | binds |
